In the supplement of paper PMC10567573 one finds protein stability index data, which are given here for 72 sequences.

± gives the standard deviation.

This data set can be described thus: protein stability index of a GFP-peptide fusion (GPS, HEK-293T) (PSI 1-6); higher = more stable. To be noted: c terminus: a fixed tail appended.
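Further: 24-mer peptide tiles fused after GFP, lentivirally expressed, FACS-sorted into six equal bins by GFP/DsRed ratio, decoded by Illumina sequencing, PSI is the read-weighted mean bin number.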

For VLMCGFPFLLLFLGNFFTTLRVVH [TMEM120A], the protein stability index is, setting by setting: (treatment: DMSO) 2.95 ± 0.24; (treatment: MLN4924 1 uM, 8 h) 3.23 ± 0.48.
The like results for TIENILDNDPRDLIGDFSKGYLFH [CDC25A] were, in that order, 2.58 ± 0.38 and 2.69 ± 0.19.
In turn, GQINVVKHLLNLGVEIDEINVYGN [ANKRD44] yielded a protein stability index (treatment: DMSO) of 2.32 ± 0.46 and a protein stability index (treatment: MLN4924 1 uM, 8 h) of 2.29 ± 0.3.
In the case of EEKKPGELKRLVESRRQQILREFE [TRIM39], the protein stability index (treatment: DMSO) is 4.43 ± 0.55 and the protein stability index (treatment: MLN4924 1 uM, 8 h) was found to be 4.59 ± 0.22.
Taken in the same sequence, the figures for VEISRRLRHSNPRADPLVCATGLL [SPNS1] were 2.22 ± 0.11 and 2.31 ± 0.32.
The like results for SALGRQRLQDISSLPLPQSLKNYL [SPSB4] were, in that order, 2.85 ± 0.11 and 3.27 ± 0.6.
Taken in the same sequence, the figures for IVRLRTIGELLAPAAPFDKKCGRE [WSB1] were 2.64 ± 0.2 and 2.85 ± 0.34.
For AKLVPSEREASPSNSCQDSTDTES [IKZF1], the protein stability index is 5.41 ± 0.41 (treatment: DMSO) and 5.53 ± 0.24 (treatment: MLN4924 1 uM, 8 h).
In turn, ELNDRFANFIEKVRFLEQQNAALR [PRPH] returned a protein stability index (treatment: DMSO) of 2.39 ± 0.21 and a protein stability index (treatment: MLN4924 1 uM, 8 h) of 2.71 ± 0.33.
Taken in the same sequence, the figures for QETRGELQCRSPPRLHGAKAILDA [TBC1D10A] were 4.55 ± 0.27 and 4.62 ± 0.12.
In turn, LAIKAITSSAKVDMTFEEEAQLLQ [FKBP8] registered a protein stability index (treatment: DMSO) of 2.95 ± 0.19 and a protein stability index (treatment: MLN4924 1 uM, 8 h) of 3.29 ± 0.34.
Turning to QAWFGFAGTPGYLSPEVLRKDPYG [CAMK2D], the protein stability index is, setting by setting: (treatment: DMSO) 2.86 ± 0.79; (treatment: MLN4924 1 uM, 8 h) 2.94 ± 0.39.
For the sequence STLVEVTLGEVPAAESPDPPQSPQ [MAGEA3], the protein stability index runs as follows: (treatment: DMSO) 5.39 ± 0.14; (treatment: MLN4924 1 uM, 8 h) 5.27 ± 0.17.
The like results for HEVKCQGKPLAGIYRKREEKRNAG [KMT5A] were, in that order, 4.64 ± 0.55 and 5.06 ± 0.1.
Taken in the same sequence, the figures for KKRRAQQAPPQDSSNKKEKKVLNH [DYRK1B] were 5.2 ± 0.32 and 5.3 ± 0.13.
Taken in the same sequence, the figures for SDGILRGNGTGYLPGRGRVLSSWS [RHOBTB2] were 3.42 ± 0.2 and 3.26 ± 0.3.
ESEDDPVVKKIALREIRMLKQLKH [CDKL4]: the protein stability index was 2.96 ± 0.52 (treatment: DMSO) and 3.08 ± 0.33 (treatment: MLN4924 1 uM, 8 h).
Taken in the same sequence, the figures for SYGGGSASSQHSEGSRSSGSNRSG [DVL3] were 5.23 ± 0.081 and 5.16 ± 0.29.
For the sequence TLIMLLSLAAFSVISVVSYLILAL [RTN3], the protein stability index was 2.58 ± 0.36 (treatment: DMSO) and 2.12 ± 0.11 (treatment: MLN4924 1 uM, 8 h).
Consider NRGLILYRLGYFDDALEDFKKVLD [TTC32], for which the protein stability index came out at 2.05 ± 0.59 (treatment: DMSO) and 2.24 ± 0.14 (treatment: MLN4924 1 uM, 8 h).
The like results for LGDRDRSRAALVCRKWNQMMYSAE [FBXO39] were, in that order, 2.72 ± 0.21 and 2.79 ± 0.17.
The like results for QENEEKEQVANKGEPLALPLDAGE [BEX1] were, in that order, 5.59 ± 0.27 and 5.48 ± 0.56.
Sequence RLQQELEQQRCLLLARLRELEQQI [TRIM15] yielded a protein stability index (treatment: DMSO) of 3.68 ± 0.2 and a protein stability index (treatment: MLN4924 1 uM, 8 h) of 3.69 ± 0.39.
In the case of ERMRNSRDRLLNRYRQAGSSGPGN [RPAIN], the protein stability index worked out at 4.12 ± 0.25 (treatment: DMSO) and 4.41 ± 0.27 (treatment: MLN4924 1 uM, 8 h).
Regarding NDPSVNSQAQETTIIASNAEEAEI [TOR1AIP2], the protein stability index amounted to 5.5 ± 0.13 (treatment: DMSO) and 5.59 ± 0.34 (treatment: MLN4924 1 uM, 8 h).
Taken in the same sequence, the figures for SACTVALHIFQLNEDGPSSENLEE [TRIP13] were 3.23 ± 0.2 and 3.33 ± 0.19.
The like results for SRKKPIWNVLMWTSLFLGNGVLLC [SOAT1] were, in that order, 2.67 ± 0.81 and 2.73 ± 0.61.
Consider DQIGSEIIEELGEQRDQLERTKSR [VTI1B], for which the protein stability index was 5.53 ± 0.24 (treatment: DMSO) and 5.47 ± 0.37 (treatment: MLN4924 1 uM, 8 h).
Taken in the same sequence, the figures for YLATEYLETHFRDVSSTEEFLELS [GAN] were 3.13 ± 0.29 and 3.2 ± 0.35.
As to KKFQSEKAAGSVSKSTQFEYAWCL [FIS1], the protein stability index was 2.12 ± 0.22 (treatment: DMSO) and 2.33 ± 0.13 (treatment: MLN4924 1 uM, 8 h).
TNTRRGSRAPCKVQGLEGIKMAMV [NEK8] gave a protein stability index (treatment: DMSO) of 2.32 ± 0.25 and a protein stability index (treatment: MLN4924 1 uM, 8 h) of 2.32 ± 0.23.
As for EVLKVQTHLENPTRYHLQQARRQQ [TFE3], the protein stability index runs as follows: (treatment: DMSO) 3.77 ± 0.23; (treatment: MLN4924 1 uM, 8 h) 3.91 ± 0.33.
With GNMANLSLHDHDGSSGASDQDTLA [DVL3], the protein stability index (treatment: DMSO) came to 5.42 ± 0.12 and the protein stability index (treatment: MLN4924 1 uM, 8 h) was found to be 5.3 ± 0.41.
Consider WIRICRPGSIIGPQQHFLEEKQAS [CDC14A], for which the protein stability index is, setting by setting: (treatment: DMSO) 2.18 ± 0.46; (treatment: MLN4924 1 uM, 8 h) 2.36 ± 0.48.
Taken in the same sequence, the figures for YDDVRRCCSSADICPKCWTLMTMA [PRIM1] were 3.34 ± 0.17 and 3.4 ± 0.36.
Turning to ACKSLQTRQNGIQTNKPALRAVRQ [STX5], the protein stability index was determined as 4.07 ± 0.17 (treatment: DMSO) and 3.95 ± 0.2 (treatment: MLN4924 1 uM, 8 h).
Taken in the same sequence, the figures for SQFSGTLMRTCERLVKEGRFVPSN [PPTC7] were 3.12 ± 0.17 and 3.04 ± 0.4.
The like results for LMKESLQTGDLLSTFHTISPSFQL [PLAGL1] were, in that order, 2.24 ± 0.13 and 2.17 ± 0.16.
Taken in the same sequence, the figures for PCLCLSWEEAQSPANCPACREPSP [TRIM43] were 4.74 ± 0.24 and 4.79 ± 0.15.
Turning to DFLLRAASFDVCESVDEAGGSGPA [RHOBTB2], the protein stability index stood at 3.96 ± 0.16 (treatment: DMSO) and 4.05 ± 0.29 (treatment: MLN4924 1 uM, 8 h).
Taken in the same sequence, the figures for FFVVETLCIIWFSFELLVRFFACP [KCNA3] were 3.11 ± 0.52 and 2.74 ± 0.42.
The like results for PASPERDYSPYYKTIEELRDKILT [KRT13] were, in that order, 3.349 ± 0.006 and 3.45 ± 0.31.
With QSEPSEQDGVLDLSTKKSPCAGST [LCOR], the protein stability index by setting is: (treatment: DMSO) 5.39 ± 0.22; (treatment: MLN4924 1 uM, 8 h) 5.46 ± 0.29.
Consider PHGTLRVCTISSTGPLQPQPKKPE [PKD2L1], for which the protein stability index (treatment: DMSO) is 4.42 ± 0.27 and the protein stability index (treatment: MLN4924 1 uM, 8 h) was found to be 4.5 ± 0.3.
In turn, ALFKANRLEKAVAAAYTFLQRNPK [P3H4] displayed a protein stability index (treatment: DMSO) of 2.48 ± 0.27 and a protein stability index (treatment: MLN4924 1 uM, 8 h) of 2.12 ± 0.53.
ESDYTYSSSYEQFNGELPNGRHKI [SRPK2]: the protein stability index (treatment: DMSO) is 4.04 ± 0.41 and the protein stability index (treatment: MLN4924 1 uM, 8 h) was 3.97 ± 0.49.
The like results for TVGCSSQHTPDQANSDRASIGRRR [PLEKHN1] were, in that order, 5.04 ± 0.36 and 5.02 ± 0.15.
Taken in the same sequence, the figures for LGKPDQKDLNENLAATQGLAHMIA [DLC1] were 3.79 ± 0.12 and 3.84 ± 0.23.
In the case of KLILTSSASVIFEGVDIKNGTEDL [NSDHL], the protein stability index by setting is: (treatment: DMSO) 3.13 ± 0.33; (treatment: MLN4924 1 uM, 8 h) 3.27 ± 0.22.
As to PANLYVRELREVRRVPPRFSIPPT [PTPRD], the protein stability index is, setting by setting: (treatment: DMSO) 2.95 ± 0.2; (treatment: MLN4924 1 uM, 8 h) 3.05 ± 0.41.
HFDATRGWLLTSGTDKVIKLWDMT [WDFY2]: the protein stability index was determined as 2.43 ± 0.3 (treatment: DMSO) and 2.78 ± 0.41 (treatment: MLN4924 1 uM, 8 h).
Take EEKQHLERLNKEYQEIFQQLQRSW [TRIM43]: the protein stability index runs as follows: (treatment: DMSO) 3.84 ± 0.23; (treatment: MLN4924 1 uM, 8 h) 3.77 ± 0.42.
As to NGSYLELSSDRVANSSSEAPFPNV [ADAMTSL2], the protein stability index runs as follows: (treatment: DMSO) 4.52 ± 0.18; (treatment: MLN4924 1 uM, 8 h) 4.28 ± 0.15.
The like results for PPRKSGSFHSSGEKQKQPRWREGT [PBXIP1] were, in that order, 4.4 ± 0.068 and 4.38 ± 0.3.
The like results for GTIRPVRCPSSSLHMSQRERTWPP [C22orf15] were, in that order, 3.77 ± 0.098 and 3.75 ± 0.17.
For LSCLGQQQQEPPLAMGTVSLGQLP [PLAGL1], the protein stability index by setting is: (treatment: DMSO) 3.75 ± 0.32; (treatment: MLN4924 1 uM, 8 h) 3.59 ± 0.5.
The like results for NTDVSMENMVTVGFFSCMGTLCIG [KCNK9] were, in that order, 2.81 ± 0.52 and 2.8 ± 0.61.
VFPPEVPISEKAKDLILRFCIDSE [STK38L] gave a protein stability index (treatment: DMSO) of 3.06 ± 0.35 and a protein stability index (treatment: MLN4924 1 uM, 8 h) of 3.32 ± 0.42.
LRDGGGLTPLELLLRQLGRDAGAT [ANKRD9]: the protein stability index runs as follows: (treatment: DMSO) 2.79 ± 0.34; (treatment: MLN4924 1 uM, 8 h) 2.58 ± 0.27.
Taken in the same sequence, the figures for ALATVSLLSLVTFTFLSAKCLQGN [PCDHGC5] were 3.2 ± 0.29 and 3.16 ± 0.23.
The like results for PGSSSGPVLGSSSGAGHGSGSGSG [SPAG8] were, in that order, 4.87 ± 0.29 and 5.14 ± 0.18.
As for EMLREVDLNGDGTVDFDEFVMMLS [CABP4], the protein stability index is, setting by setting: (treatment: DMSO) 4.06 ± 0.25; (treatment: MLN4924 1 uM, 8 h) 4.17 ± 0.33.
SAWSNIQEAPLQDDSCLNNDIPHS [FAN1] yielded a protein stability index (treatment: DMSO) of 4.98 ± 0.2 and a protein stability index (treatment: MLN4924 1 uM, 8 h) of 5.07 ± 0.067.
The like results for HVTDPLIGCKKPVSASGKEMDWAQ [SMG5] were, in that order, 3.78 ± 0.18 and 4.04 ± 0.24.
On to LHVSLGQKLVAAYVLGLLTMVFLR [MOSPD3], for which the protein stability index is 3.17 ± 0.42 (treatment: DMSO) and 2.89 ± 0.28 (treatment: MLN4924 1 uM, 8 h).
Turning to FLVLEQFLTILPEELQSWVRGHHP [ZNF232], the protein stability index reads like this: (treatment: DMSO) 2.45 ± 0.55; (treatment: MLN4924 1 uM, 8 h) 2.5 ± 0.62.
The like results for NTTEELEALITDPDEMRMQALLIR [FEM1A] were, in that order, 3.93 ± 0.29 and 3.86 ± 0.27.
In the case of GSLPGPGQTSGAREPPQAVSIKEA [VENTX], the protein stability index is, setting by setting: (treatment: DMSO) 5.01 ± 0.41; (treatment: MLN4924 1 uM, 8 h) 5.52 ± 0.2.
Taken in the same sequence, the figures for YLIIRTLGKLIPRHQSIFKSNGFF [CDKL4] were 2.74 ± 1.3 and 2.72 ± 1.8.
Taken in the same sequence, the figures for LKRKNKQAFLDELESSDLPVALLL [MNAT1] were 2.2 ± 0.42 and 2 ± 0.3.
FPPFFDDNPFGIYQKILAGKIDFP [PRKX] returned a protein stability index (treatment: DMSO) of 2.28 ± 0.067 and a protein stability index (treatment: MLN4924 1 uM, 8 h) of 2.27 ± 0.62.
For DSHLGGNARGMGIRSPRPASVATW [CTBP1-DT], the protein stability index reads like this: (treatment: DMSO) 3.56 ± 0.24; (treatment: MLN4924 1 uM, 8 h) 3.63 ± 0.2.
